Test results published in US20240400654A1.
Where “and” joins values, the source holds several entries; their conditions need not be identical. Equal entries are not always repeated.

B1: KB001 mouse Fab VL T24K (Fab, V domains shown)
VH: EVQLKQSGPGLVAPSQSLSITCTVSGFSLSIYSVHWVRQPPGKGLEWLGMIWGGGSSDYNSALKSRLSISKDNSKSQVFLKMNSLQTDDTAMYYCARNGNFYAMDYWGQGTSVTVSS
VL: QIVLTQSPAIMSASLGERVTMTCKASSSVSSSFLHWYQQKPGSSPQLWIYSTSNLASGVPARFSGSGSGTSYSLTISSMEAEDAATYYCHQYHHSPYIYTFGGGTKLEIK
B2: KB001 mouse Fab VL S31Y (Fab, V domains shown)
VH: EVQLKQSGPGLVAPSQSLSITCTVSGFSLSIYSVHWVRQPPGKGLEWLGMIWGGGSSDYNSALKSRLSISKDNSKSQVFLKMNSLQTDDTAMYYCARNGNFYAMDYWGQGTSVTVSS
VL: QIVLTQSPAIMSASLGERVTMTCTASSSVSYSFLHWYQQKPGSSPQLWIYSTSNLASGVPARFSGSGSGTSYSLTISSMEAEDAATYYCHQYHHSPYIYTFGGGTKLEIK
B3: KB001 mouse Fab VL S30G (Fab, V domains shown)
VH: EVQLKQSGPGLVAPSQSLSITCTVSGFSLSIYSVHWVRQPPGKGLEWLGMIWGGGSSDYNSALKSRLSISKDNSKSQVFLKMNSLQTDDTAMYYCARNGNFYAMDYWGQGTSVTVSS
VL: QIVLTQSPAIMSASLGERVTMTCTASSSVGSSFLHWYQQKPGSSPQLWIYSTSNLASGVPARFSGSGSGTSYSLTISSMEAEDAATYYCHQYHHSPYIYTFGGGTKLEIK
B4: KB001 mouse Fab VL S28P (Fab, V domains shown)
VH: EVQLKQSGPGLVAPSQSLSITCTVSGFSLSIYSVHWVRQPPGKGLEWLGMIWGGGSSDYNSALKSRLSISKDNSKSQVFLKMNSLQTDDTAMYYCARNGNFYAMDYWGQGTSVTVSS
VL: QIVLTQSPAIMSASLGERVTMTCTASSPVSSSFLHWYQQKPGSSPQLWIYSTSNLASGVPARFSGSGSGTSYSLTISSMEAEDAATYYCHQYHHSPYIYTFGGGTKLEIK
B5: KB001 mouse Fab VL S28W (Fab, V domains shown)
VH: EVQLKQSGPGLVAPSQSLSITCTVSGFSLSIYSVHWVRQPPGKGLEWLGMIWGGGSSDYNSALKSRLSISKDNSKSQVFLKMNSLQTDDTAMYYCARNGNFYAMDYWGQGTSVTVSS
VL: QIVLTQSPAIMSASLGERVTMTCTASSWVSSSFLHWYQQKPGSSPQLWIYSTSNLASGVPARFSGSGSGTSYSLTISSMEAEDAATYYCHQYHHSPYIYTFGGGTKLEIK
B6: KB001 mouse Fab VL T24E (Fab, V domains shown)
VH: EVQLKQSGPGLVAPSQSLSITCTVSGFSLSIYSVHWVRQPPGKGLEWLGMIWGGGSSDYNSALKSRLSISKDNSKSQVFLKMNSLQTDDTAMYYCARNGNFYAMDYWGQGTSVTVSS
VL: QIVLTQSPAIMSASLGERVTMTCEASSSVSSSFLHWYQQKPGSSPQLWIYSTSNLASGVPARFSGSGSGTSYSLTISSMEAEDAATYYCHQYHHSPYIYTFGGGTKLEIK
B7: KB001 mouse Fab VL A25T (Fab, V domains shown)
VH: EVQLKQSGPGLVAPSQSLSITCTVSGFSLSIYSVHWVRQPPGKGLEWLGMIWGGGSSDYNSALKSRLSISKDNSKSQVFLKMNSLQTDDTAMYYCARNGNFYAMDYWGQGTSVTVSS
VL: QIVLTQSPAIMSASLGERVTMTCTTSSSVSSSFLHWYQQKPGSSPQLWIYSTSNLASGVPARFSGSGSGTSYSLTISSMEAEDAATYYCHQYHHSPYIYTFGGGTKLEIK
B8: KB001 mouse Fab VL S26N (Fab, V domains shown)
VH: EVQLKQSGPGLVAPSQSLSITCTVSGFSLSIYSVHWVRQPPGKGLEWLGMIWGGGSSDYNSALKSRLSISKDNSKSQVFLKMNSLQTDDTAMYYCARNGNFYAMDYWGQGTSVTVSS
VL: QIVLTQSPAIMSASLGERVTMTCTANSSVSSSFLHWYQQKPGSSPQLWIYSTSNLASGVPARFSGSGSGTSYSLTISSMEAEDAATYYCHQYHHSPYIYTFGGGTKLEIK
B9: KB001 mouse Fab VL S31P (Fab, V domains shown)
VH: EVQLKQSGPGLVAPSQSLSITCTVSGFSLSIYSVHWVRQPPGKGLEWLGMIWGGGSSDYNSALKSRLSISKDNSKSQVFLKMNSLQTDDTAMYYCARNGNFYAMDYWGQGTSVTVSS
VL: QIVLTQSPAIMSASLGERVTMTCTASSSVSPSFLHWYQQKPGSSPQLWIYSTSNLASGVPARFSGSGSGTSYSLTISSMEAEDAATYYCHQYHHSPYIYTFGGGTKLEIK
B10: KB001 mouse Fab VL S31E (Fab, V domains shown)
VH: EVQLKQSGPGLVAPSQSLSITCTVSGFSLSIYSVHWVRQPPGKGLEWLGMIWGGGSSDYNSALKSRLSISKDNSKSQVFLKMNSLQTDDTAMYYCARNGNFYAMDYWGQGTSVTVSS
VL: QIVLTQSPAIMSASLGERVTMTCTASSSVSESFLHWYQQKPGSSPQLWIYSTSNLASGVPARFSGSGSGTSYSLTISSMEAEDAATYYCHQYHHSPYIYTFGGGTKLEIK
B11: KB001 mouse Fab VL S28K (Fab, V domains shown)
VH: EVQLKQSGPGLVAPSQSLSITCTVSGFSLSIYSVHWVRQPPGKGLEWLGMIWGGGSSDYNSALKSRLSISKDNSKSQVFLKMNSLQTDDTAMYYCARNGNFYAMDYWGQGTSVTVSS
VL: QIVLTQSPAIMSASLGERVTMTCTASSKVSSSFLHWYQQKPGSSPQLWIYSTSNLASGVPARFSGSGSGTSYSLTISSMEAEDAATYYCHQYHHSPYIYTFGGGTKLEIK
B12: KB001 mouse Fab VL S26D (Fab, V domains shown)
VH: EVQLKQSGPGLVAPSQSLSITCTVSGFSLSIYSVHWVRQPPGKGLEWLGMIWGGGSSDYNSALKSRLSISKDNSKSQVFLKMNSLQTDDTAMYYCARNGNFYAMDYWGQGTSVTVSS
VL: QIVLTQSPAIMSASLGERVTMTCTADSSVSSSFLHWYQQKPGSSPQLWIYSTSNLASGVPARFSGSGSGTSYSLTISSMEAEDAATYYCHQYHHSPYIYTFGGGTKLEIK
B13: KB001 mouse Fab VL S30F (Fab, V domains shown)
VH: EVQLKQSGPGLVAPSQSLSITCTVSGFSLSIYSVHWVRQPPGKGLEWLGMIWGGGSSDYNSALKSRLSISKDNSKSQVFLKMNSLQTDDTAMYYCARNGNFYAMDYWGQGTSVTVSS
VL: QIVLTQSPAIMSASLGERVTMTCTASSSVFSSFLHWYQQKPGSSPQLWIYSTSNLASGVPARFSGSGSGTSYSLTISSMEAEDAATYYCHQYHHSPYIYTFGGGTKLEIK
B14: KB001 mouse Fab VL S31F (Fab, V domains shown)
VH: EVQLKQSGPGLVAPSQSLSITCTVSGFSLSIYSVHWVRQPPGKGLEWLGMIWGGGSSDYNSALKSRLSISKDNSKSQVFLKMNSLQTDDTAMYYCARNGNFYAMDYWGQGTSVTVSS
VL: QIVLTQSPAIMSASLGERVTMTCTASSSVSFSFLHWYQQKPGSSPQLWIYSTSNLASGVPARFSGSGSGTSYSLTISSMEAEDAATYYCHQYHHSPYIYTFGGGTKLEIK
B15: KB001 mouse Fab VL S51G (Fab, V domains shown)
VH: EVQLKQSGPGLVAPSQSLSITCTVSGFSLSIYSVHWVRQPPGKGLEWLGMIWGGGSSDYNSALKSRLSISKDNSKSQVFLKMNSLQTDDTAMYYCARNGNFYAMDYWGQGTSVTVSS
VL: QIVLTQSPAIMSASLGERVTMTCTASSSVSSSFLHWYQQKPGSSPQLWIYGTSNLASGVPARFSGSGSGTSYSLTISSMEAEDAATYYCHQYHHSPYIYTFGGGTKLEIK
B16: KB001 mouse Fab VL S27K (Fab, V domains shown)
VH: EVQLKQSGPGLVAPSQSLSITCTVSGFSLSIYSVHWVRQPPGKGLEWLGMIWGGGSSDYNSALKSRLSISKDNSKSQVFLKMNSLQTDDTAMYYCARNGNFYAMDYWGQGTSVTVSS
VL: QIVLTQSPAIMSASLGERVTMTCTASKSVSSSFLHWYQQKPGSSPQLWIYSTSNLASGVPARFSGSGSGTSYSLTISSMEAEDAATYYCHQYHHSPYIYTFGGGTKLEIK
B17: KB001 mouse Fab VL T24H (Fab, V domains shown)
VH: EVQLKQSGPGLVAPSQSLSITCTVSGFSLSIYSVHWVRQPPGKGLEWLGMIWGGGSSDYNSALKSRLSISKDNSKSQVFLKMNSLQTDDTAMYYCARNGNFYAMDYWGQGTSVTVSS
VL: QIVLTQSPAIMSASLGERVTMTCHASSSVSSSFLHWYQQKPGSSPQLWIYSTSNLASGVPARFSGSGSGTSYSLTISSMEAEDAATYYCHQYHHSPYIYTFGGGTKLEIK
B18: KB001 mouse Fab VL S28G (Fab, V domains shown)
VH: EVQLKQSGPGLVAPSQSLSITCTVSGFSLSIYSVHWVRQPPGKGLEWLGMIWGGGSSDYNSALKSRLSISKDNSKSQVFLKMNSLQTDDTAMYYCARNGNFYAMDYWGQGTSVTVSS
VL: QIVLTQSPAIMSASLGERVTMTCTASSGVSSSFLHWYQQKPGSSPQLWIYSTSNLASGVPARFSGSGSGTSYSLTISSMEAEDAATYYCHQYHHSPYIYTFGGGTKLEIK
B19: KB001 mouse Fab VL S31T (Fab, V domains shown)
VH: EVQLKQSGPGLVAPSQSLSITCTVSGFSLSIYSVHWVRQPPGKGLEWLGMIWGGGSSDYNSALKSRLSISKDNSKSQVFLKMNSLQTDDTAMYYCARNGNFYAMDYWGQGTSVTVSS
VL: QIVLTQSPAIMSASLGERVTMTCTASSSVSTSFLHWYQQKPGSSPQLWIYSTSNLASGVPARFSGSGSGTSYSLTISSMEAEDAATYYCHQYHHSPYIYTFGGGTKLEIK
B20: KB001 mouse Fab VL S28V (Fab, V domains shown)
VH: EVQLKQSGPGLVAPSQSLSITCTVSGFSLSIYSVHWVRQPPGKGLEWLGMIWGGGSSDYNSALKSRLSISKDNSKSQVFLKMNSLQTDDTAMYYCARNGNFYAMDYWGQGTSVTVSS
VL: QIVLTQSPAIMSASLGERVTMTCTASSVVSSSFLHWYQQKPGSSPQLWIYSTSNLASGVPARFSGSGSGTSYSLTISSMEAEDAATYYCHQYHHSPYIYTFGGGTKLEIK
B21: KB001 mouse Fab VL A25F (Fab, V domains shown)
VH: EVQLKQSGPGLVAPSQSLSITCTVSGFSLSIYSVHWVRQPPGKGLEWLGMIWGGGSSDYNSALKSRLSISKDNSKSQVFLKMNSLQTDDTAMYYCARNGNFYAMDYWGQGTSVTVSS
VL: QIVLTQSPAIMSASLGERVTMTCTFSSSVSSSFLHWYQQKPGSSPQLWIYSTSNLASGVPARFSGSGSGTSYSLTISSMEAEDAATYYCHQYHHSPYIYTFGGGTKLEIK

These binders were tested against HRgpA-6H (Porphyromonas gingivalis) (UniProt P28784) (assay: ELISA, coated HRgpA-6H).
Sequence of UniProt P28784 (P28784 228-860 limits assumed): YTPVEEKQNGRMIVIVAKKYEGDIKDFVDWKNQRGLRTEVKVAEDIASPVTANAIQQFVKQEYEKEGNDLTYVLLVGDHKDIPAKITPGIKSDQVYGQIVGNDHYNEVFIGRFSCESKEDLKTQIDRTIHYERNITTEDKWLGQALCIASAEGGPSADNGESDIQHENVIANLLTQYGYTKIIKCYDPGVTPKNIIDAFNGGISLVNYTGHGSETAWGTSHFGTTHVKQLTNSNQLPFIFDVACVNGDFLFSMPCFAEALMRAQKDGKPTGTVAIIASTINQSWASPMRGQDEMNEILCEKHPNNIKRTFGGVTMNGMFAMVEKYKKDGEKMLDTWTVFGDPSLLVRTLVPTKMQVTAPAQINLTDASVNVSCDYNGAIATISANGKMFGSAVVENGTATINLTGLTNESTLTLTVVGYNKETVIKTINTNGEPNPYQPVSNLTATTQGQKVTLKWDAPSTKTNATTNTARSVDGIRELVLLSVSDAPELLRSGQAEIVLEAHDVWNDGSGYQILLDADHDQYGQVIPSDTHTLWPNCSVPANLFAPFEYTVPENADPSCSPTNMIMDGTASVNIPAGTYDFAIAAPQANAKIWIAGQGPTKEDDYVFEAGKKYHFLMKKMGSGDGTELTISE
B1 was tested, and the OD450 nm was 0.797 and 0.734 and the Ratio OD(Variant)/OD(WT) was 1.04 and 0.954.
B2 showed an OD450 nm of 0.849 and a Ratio OD(Variant)/OD(WT) of 1.
B3 was tested, and the OD450 nm was 0.916 and 0.858 and the Ratio OD(Variant)/OD(WT) was 1.06 and 0.995.
B4 was tested, and the OD450 nm was 0.808 and 0.726 and the Ratio OD(Variant)/OD(WT) was 1.08 and 0.967.
For B5, the OD450 nm was 0.817 and 0.745 and the Ratio OD(Variant)/OD(WT) was 1.09 and 0.993.
B6 was tested, and the OD450 nm was 0.852 and 0.81 and the Ratio OD(Variant)/OD(WT) was 1.11 and 1.05.
For B7, the OD450 nm was 0.823 and 0.801 and the Ratio OD(Variant)/OD(WT) was 1.05 and 1.02.
In the case of B8, the OD450 nm is reported as 0.823 and 0.749 and the Ratio OD(Variant)/OD(WT) is reported as 1.05 and 0.957.
For B9, the OD450 nm was 0.87 and 0.875 and 0.856 and the Ratio OD(Variant)/OD(WT) was 1.03 and 1.04 and 1.01.
With B10 the OD450 nm was 0.903 and 0.798 and the Ratio OD(Variant)/OD(WT) was 1.07 and 0.944.
With B11 the OD450 nm was 0.801 and the Ratio OD(Variant)/OD(WT) was 1.07.
With B12 the OD450 nm was 0.821 and the Ratio OD(Variant)/OD(WT) was 1.05.
B13 was tested, and the OD450 nm was 0.911 and the Ratio OD(Variant)/OD(WT) was 1.06.
With B14 the OD450 nm was 0.854 and 0.688 and 0.693 and the Ratio OD(Variant)/OD(WT) was 1.01 and 0.814 and 0.82.
B15 was tested, and the OD450 nm was 0.915 and 0.777 and 0.851 and the Ratio OD(Variant)/OD(WT) was 1.05 and 0.888 and 0.973.
B16 was tested, and the OD450 nm was 0.783 and 0.745 and 0.697 and the Ratio OD(Variant)/OD(WT) was 1.04 and 0.993 and 0.929.
For B17, the OD450 nm was 0.795 and the Ratio OD(Variant)/OD(WT) was 1.03.
For B18, the OD450 nm was 0.818 and the Ratio OD(Variant)/OD(WT) was 1.09.
B19 was tested, and the OD450 nm was 0.859 and 0.74 and 0.782 and the Ratio OD(Variant)/OD(WT) was 1.02 and 0.876 and 0.925.
For B20, the OD450 nm was 0.786 and 0.731 and 0.717 and the Ratio OD(Variant)/OD(WT) was 1.05 and 0.974 and 0.955.
For B21, the OD450 nm was 0.818 and 0.827 and 0.775 and the Ratio OD(Variant)/OD(WT) was 1.04 and 1.06 and 0.99.
